This is an account of results in article PMC5001929 (Cell reports, 2016).

This assay addresses T1, Gremlin-2 (UniProt O88273 22-168).
T1 sequence: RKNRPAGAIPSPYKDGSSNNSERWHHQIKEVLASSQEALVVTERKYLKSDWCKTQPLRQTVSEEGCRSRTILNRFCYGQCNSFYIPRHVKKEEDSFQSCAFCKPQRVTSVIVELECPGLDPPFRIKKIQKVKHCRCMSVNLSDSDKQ
The assay is described as follows: SPR. On the technique in general: Surface plasmon resonance follows binding to a sensor surface in real time, without labels.

The Kd is the equilibrium constant for the complex coming apart. High values mean lower affinity, low ones higher affinity.

B1: GDF5 (ligand, UniProt P43026 382-501, looked up)
chain: APLATRQGKRPSKNLKARCSRKALHVNFKDMGWDDWIIAPLEYEAFHCEGLCEFPLRSHLEPTNHAVIQTLMNSMDPESTPPTCCVPTRLSPISILFIDSANNVVYKQYEDMVVESCGCR
Molecule B1 gave a Kd of 146 nM.

B2: BMP2 (ligand, UniProt P12643 283-396, looked up)
chain: QAKHKQRKRLKSSCKRHPLYVDFSDVGWNDWIVAPPGYHAFYCHGECPFPLADHLNSTNHAIVQTLVNSVNSKIPKACCVPTELSAISMLYLDENEKVVLKNYQDMVVEGCGCR
Take B2: the Kd amounted to 9 nM.
